According to US20030103973A1 (published 2003):
Like-named read-outs stand apart in the source and are kept apart here.

Experiments:
[1] = target: T1, soluble fusion protein KDR-AP (KDR extracellular domain fused to human placental alkaline phosphatase) (human, UniProt P35968 20-764); assay: BIAcore, KDR-AP immobilized
T1 construct: extracellular domain; also called immobilized KDR; KDR receptor; not shown: human placental alkaline phosphatase (vector AP-Tag)
Description: The binding kinetics of antibodies to KDR were measured using BIAcore biosensor (Pharmacia Biosensor). […] Sensorgrams were obtained at each concentration and were evaluated using a program, BIA Evaluation 2.0, to determine the rate constants kon and koff. Kd was calculated as the ratio of rate constants koff/kon.
*All rates are determined by surface plasmon resonance using BIAcore system, and are mean of at least three separate determinations.

[2] = target: T1, soluble fusion protein KDR-AP (KDR …); assay: competitive ELISA: KDR-AP binding to immobilized VEGF165
KDR expressed on HUVEC = KDR expressed on HUVEC (human, UniProt P35968 20-1356); assay: cell-based or functional assay
[3] = target: T1, soluble fusion protein KDR-AP (KDR …); assay: BIAcore, KDR-AP immobilized; remark: listed apart in the source
Description: The binding kinetics of soluble scFv to KDR were measured using BIAcore biosensor (Pharmacia Biosensor). KDR-AP fusion protein was immobilized onto a sensor chip and soluble scFv were injected at concentrations ranging from 62.5 nM to 1000 nM. Sensorgrams were obtained at each concentration and were evaluated using a program, BIA Evaluation 2.0, to determine the rate constant kon and koff. Kd was calculated from the ratio of rate constants koff/kon.

[4] = target: T1, soluble fusion protein KDR-AP (KDR …); assay: competitive VEGF blocking ELISA: KDR-AP binding to immobilized VEGF165
[5] = target: T1, soluble fusion protein KDR-AP (KDR …); assay: direct binding ELISA on KDR-coated plates (printed ED50, 50% of maximum binding)
Description: In the direct binding assay, various amounts of soluble scFv were added to KDR-coated 96-well Maxi-sorp microtiter plates and incubated at room temerature for 1 h, after which the plates were washed 3 times with PBST. The plates were then incubated at room temerature for 1 h with 100 μl of mouse anti-E tag antibody followed by incubation with 100 µl of rabbit anti-mouse antibody-HRP conjugate. The plates were washed and developed following the procedure described above for the phage ELISA.

[6] = target: chimeric receptor mouse FLK-1/human fms expressed on transfected 3T3 cells (C441) (mouse; human) (UniProt P35918); assay: cell-based or functional assay
[7] = target: chimeric receptor mouse FLK-1/human fms expressed on transfected 3T3 cells (C441) (mouse; human) (UniProt P35918); assay: saturation binding to intact C441 cells, colorimetric detection

T1 sequence (P35968 20-764): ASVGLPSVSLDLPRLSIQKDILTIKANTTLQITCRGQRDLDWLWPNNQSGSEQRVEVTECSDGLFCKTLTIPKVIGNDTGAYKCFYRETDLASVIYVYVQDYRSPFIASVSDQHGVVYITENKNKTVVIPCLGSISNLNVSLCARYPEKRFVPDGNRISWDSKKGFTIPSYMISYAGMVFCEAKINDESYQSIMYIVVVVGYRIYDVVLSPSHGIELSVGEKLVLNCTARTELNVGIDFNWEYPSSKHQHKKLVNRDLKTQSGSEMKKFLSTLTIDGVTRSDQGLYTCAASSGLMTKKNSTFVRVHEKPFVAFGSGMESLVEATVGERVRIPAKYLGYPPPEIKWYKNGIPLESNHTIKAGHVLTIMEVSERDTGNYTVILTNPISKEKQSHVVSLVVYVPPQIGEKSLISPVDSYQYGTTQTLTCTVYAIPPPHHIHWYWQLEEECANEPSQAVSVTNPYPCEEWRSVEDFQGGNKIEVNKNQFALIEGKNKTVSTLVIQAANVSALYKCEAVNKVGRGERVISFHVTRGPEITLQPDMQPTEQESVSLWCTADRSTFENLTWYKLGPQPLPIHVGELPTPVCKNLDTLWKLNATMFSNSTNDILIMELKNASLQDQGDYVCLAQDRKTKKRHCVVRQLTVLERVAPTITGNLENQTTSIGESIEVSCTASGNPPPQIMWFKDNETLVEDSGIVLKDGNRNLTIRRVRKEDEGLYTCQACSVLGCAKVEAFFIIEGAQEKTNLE
chimeric receptor mouse FLK-1/human fms expressed on transfected 3T3 cells (C441) (mouse; human), sequence (P35918 other isoform, or with tags, fused parts or gaps mutant limits assumed): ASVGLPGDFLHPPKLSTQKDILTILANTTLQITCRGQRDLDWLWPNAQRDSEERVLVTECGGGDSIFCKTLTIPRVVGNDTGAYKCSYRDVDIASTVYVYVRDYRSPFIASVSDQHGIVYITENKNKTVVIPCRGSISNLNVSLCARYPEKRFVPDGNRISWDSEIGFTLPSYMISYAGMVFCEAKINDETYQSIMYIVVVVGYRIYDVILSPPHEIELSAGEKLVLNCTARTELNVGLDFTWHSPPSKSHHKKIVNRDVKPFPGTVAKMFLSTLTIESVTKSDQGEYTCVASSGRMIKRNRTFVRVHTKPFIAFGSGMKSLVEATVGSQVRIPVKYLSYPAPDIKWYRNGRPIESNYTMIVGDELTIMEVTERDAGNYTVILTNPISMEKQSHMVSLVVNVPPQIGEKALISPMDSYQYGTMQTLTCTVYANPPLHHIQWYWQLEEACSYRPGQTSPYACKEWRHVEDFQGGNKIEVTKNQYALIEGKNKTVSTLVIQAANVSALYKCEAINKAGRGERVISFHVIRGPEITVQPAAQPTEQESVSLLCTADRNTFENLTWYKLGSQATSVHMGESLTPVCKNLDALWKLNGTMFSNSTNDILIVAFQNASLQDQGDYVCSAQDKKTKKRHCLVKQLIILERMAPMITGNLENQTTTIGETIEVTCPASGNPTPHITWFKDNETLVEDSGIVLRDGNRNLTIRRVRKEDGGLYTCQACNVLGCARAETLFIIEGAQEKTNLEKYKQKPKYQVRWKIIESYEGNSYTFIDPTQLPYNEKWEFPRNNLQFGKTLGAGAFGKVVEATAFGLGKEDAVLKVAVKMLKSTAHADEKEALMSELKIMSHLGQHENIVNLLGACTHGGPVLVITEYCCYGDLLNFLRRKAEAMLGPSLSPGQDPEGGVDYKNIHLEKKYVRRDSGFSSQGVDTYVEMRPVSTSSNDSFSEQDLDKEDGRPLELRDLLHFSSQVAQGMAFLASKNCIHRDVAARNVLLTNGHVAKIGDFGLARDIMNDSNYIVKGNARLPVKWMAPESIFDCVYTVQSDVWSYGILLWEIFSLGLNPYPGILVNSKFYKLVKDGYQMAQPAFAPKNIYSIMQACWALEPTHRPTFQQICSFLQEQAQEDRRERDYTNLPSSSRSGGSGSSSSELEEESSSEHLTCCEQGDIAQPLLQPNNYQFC
KDR expressed on HUVEC, sequence (P35968 20-1356): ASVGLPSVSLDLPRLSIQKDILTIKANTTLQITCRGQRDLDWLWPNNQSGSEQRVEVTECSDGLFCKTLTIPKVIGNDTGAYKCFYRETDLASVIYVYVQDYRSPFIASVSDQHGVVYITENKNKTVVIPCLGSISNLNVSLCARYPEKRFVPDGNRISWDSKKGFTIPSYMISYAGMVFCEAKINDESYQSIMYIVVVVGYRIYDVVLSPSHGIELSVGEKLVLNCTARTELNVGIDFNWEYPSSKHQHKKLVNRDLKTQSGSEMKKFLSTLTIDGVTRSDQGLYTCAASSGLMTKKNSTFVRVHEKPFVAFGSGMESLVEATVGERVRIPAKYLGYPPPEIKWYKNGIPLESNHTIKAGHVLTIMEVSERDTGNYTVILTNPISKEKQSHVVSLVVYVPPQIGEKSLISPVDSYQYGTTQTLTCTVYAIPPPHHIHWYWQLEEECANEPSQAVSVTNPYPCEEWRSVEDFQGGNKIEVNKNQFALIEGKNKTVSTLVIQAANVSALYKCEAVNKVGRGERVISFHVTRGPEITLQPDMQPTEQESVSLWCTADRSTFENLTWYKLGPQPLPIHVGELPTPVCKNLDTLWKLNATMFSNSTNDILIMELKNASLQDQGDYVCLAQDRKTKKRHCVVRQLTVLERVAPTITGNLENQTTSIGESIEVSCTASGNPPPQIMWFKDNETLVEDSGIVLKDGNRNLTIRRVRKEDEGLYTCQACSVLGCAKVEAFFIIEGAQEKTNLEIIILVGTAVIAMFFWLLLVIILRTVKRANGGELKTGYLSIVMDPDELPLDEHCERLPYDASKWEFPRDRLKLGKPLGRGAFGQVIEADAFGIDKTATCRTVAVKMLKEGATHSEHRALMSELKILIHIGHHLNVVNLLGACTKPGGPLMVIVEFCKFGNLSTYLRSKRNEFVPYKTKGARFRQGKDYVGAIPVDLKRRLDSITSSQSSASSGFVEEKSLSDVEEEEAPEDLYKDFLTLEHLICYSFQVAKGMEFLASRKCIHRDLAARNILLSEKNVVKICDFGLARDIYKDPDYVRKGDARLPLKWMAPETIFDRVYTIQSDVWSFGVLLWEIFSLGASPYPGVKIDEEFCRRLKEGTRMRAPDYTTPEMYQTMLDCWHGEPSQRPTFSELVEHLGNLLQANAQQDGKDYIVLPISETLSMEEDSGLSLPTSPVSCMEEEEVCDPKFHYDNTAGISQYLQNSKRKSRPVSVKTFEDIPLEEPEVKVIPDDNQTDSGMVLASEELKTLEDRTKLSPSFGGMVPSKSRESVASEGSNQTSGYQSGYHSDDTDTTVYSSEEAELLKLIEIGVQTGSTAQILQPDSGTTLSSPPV

Kd [1] | koff [1] | kon [1] | IC50 [2] | EC50, the antibody concentration that inhibited 50% of VEGF-stimulated mitogenesis of HUVEC (KDR expressed on HUVEC) | Kd [3] | koff [3] | kon [3] | IC50 [4] | EC50 [5] | antibody concentration giving a marked decrease in the phosphorylation of FLK-1, competitive conditions [6] | antibody concentration giving a marked decrease in the phosphorylation of FLK-1 by VEGF165 (40 ng/ml) [6] | antibody concentration sufficient to inhibit receptor activation by ligand [6] | level of FLK-1/fms phosphorylation relative to the fully stimulated receptor control, antibody added with VEGF (densitometry) [6] | level of FLK-1/fms phosphorylation relative to the fully stimulated receptor control, antibody prebound (densitometry) [6] | prebound antibody concentration sufficient to completely inhibit receptor activation by ligand [6] | relative apparent affinity [7] | Binder
0.82 nM | 5.2e-05 s⁻¹ | 63000 M⁻¹ s⁻¹ | 0.8 nM | – | – | – | – | – | – | – | – | – | – | – | – | – | chimeric p1C11 IgG (c-p1C11) (antibody, V domains shown, bivalent IgG made in COS cells; also called chimeric IgG) VH: QVKLQQSGAELVGSGASVKLSCTTSGFNIKDFYMHWVKQRPEQGLEWIGWIDPENGDSDYAPKFQGKATMTADSSSNTAYLQLSSLTSEDTAVYYCNAYYGDYEGYWGQGTTVTVSS VL: DIELTQSPAIMSASPGEKVTITCSASSSVSYMHWFQQKPGTSPKLWIYSTSNLASGVPARFSGSGSGTSYSLTISRMEAEDAATYYCQQRSSYPFTFGSGTKLEIK
2.1 nM | 0.000227 s⁻¹ | 111000 M⁻¹ s⁻¹ | 2 nM | ~5 nM | 2.1 nM | 0.00023 s⁻¹ | 110000 M⁻¹ s⁻¹ | 3 nM | 0.3 nM | – | – | – | – | – | – | – | anti-KDR single chain antibody p1C11 (scFv, also called scFv p1C11; p1C11 scFv) scFv: QVKLQQSGAELVGSGASVKLSCTTSGFNIKDFYMHWVKQRPEQGLEWIGWIDPENGDSDYAPKFQGKATMTADSSSNTAYLQLSSLTSEDTAVYYCNAYYGDYEGYWGQGTTVTVSSGGGGSGGGGSGGGGSDIELTQSPAIMSASPGEKVTITCSASSSVSYMHWFQQKPGTSPKLWIYSTSNLASGVPARFSGSGSGTSYSLTISRMEAEDAATYYCQQRSSYPFTFGSGTKLEIK
– | – | – | – | – | – | – | – | – | – | > 0.5 µg/mL | > 0.5 µg/mL | < 1 µg/mL | 40% | 6% | < 1 µg/mL | 500 ng/mL | rat anti-mouse FLK-1 monoclonal antibody DC-101 (antibody, from another filing, rat IgG1, V domains shown) VH: EVQLVETGGGLVQPGNSLKLSCATSGFIFSTTWMNWIRQTPGKRLEWLAQIEDKSNNYFISYSESVKGRFTISRDDSKSSVYLQMNNLKEEDTAIYYCSWKYRSNYYFDYWGQGVMVTVSS VL: DIVLTQSPALAVSLEQRATISCKTSQNVDYYGISYLHWYQQKPGQQPKLLIYEGSNLASGIPARFSGSGSGTDFTLTIDPVEADDIVTYYCQQSKDYPYTFGAGTKLELKR
